Reference: patent publication US7358353B2, “Nucleic acid and corresponding protein named 158P1D7 useful in the treatment and detection of bladder and other cancers” (Agensys, Inc., priority 2000, dated 2008)

Biological target: T1, 158P1D7 protein (Homo sapiens, UniProt Q9H5Y7)
T1 construct: from tissue; host or cells: formalin fixed, paraffin embedded tumor tissue from patients (bladder transitional cell carcinoma, breast ductal carcinoma, lung carcinoma)
Experiment: Immunohistochemistry of cancer patient specimens with anti-158P1D7 MAb (Table LVIII)
Excerpt: FIG. 36. Detection of 158P1D7 protein by immunohistochemistry in various cancer patient specimens. Tissue was obtained from patients with bladder transitional cell carcinoma, breast ductal carcinoma and lung carcinoma. […] (C) breast infiltrating ductal carcinoma, moderately differentiated, (D) breast infiltrating ductal carcinoma, moderate to poorly differentiated, (E) lung squamous cell carcinoma, (F) lung adenocarcinoma, well differentiated.
The sections were dewaxed, rehydrated and treated with antigen retrieval solution (Antigen Retrieval Citra Solution; BioGenex, 4600 Norris Canyon Road, San Ramon, Calif., 94583) at high temperature. Sections were then incubated in mouse monoclonal anti-158P1D7 antibody, M15-68(2)22, for 3 hours. The slides were washed three times in buffer and further incubated with DAKO EnVision+™ peroxidase-conjugated goat anti-mouse immunoglobulin secondary antibody (DAKO Corporation, Carpenteria, Calif.) for 1 hour. The sections were then washed in buffer, developed using the DAB kit (SIGMA Chemicals), counterstained using hematoxylin, and analyzed by bright field microscopy. […] 49.3% of bladder transitional cell carcinoma samples tested were positive for 158P1D7 (Table LVIII).

[1] = Breast Carcinoma patient specimens
[2] = Lung Carcinoma patient specimens

% No. Positive (Bladder TCC patient specimens): 49.3%
Number Positive (Bladder TCC patient specimens): 35
% No. Positive [1]: 90.9%
Number Positive [1]: 11
% No. Positive [2]: 23.1%
Number Positive [2]: 26
Substance: 158P1D7 protein
